Laboratory results taken from patent US12616740B2, “Methods of using a GIP/GLP1 co-agonist for therapy” (ELI LILLY AND COMPANY, priority 2018, dated 2026).

Key:
Assay type in all cases: in vivo, human
[1] = tested on: patients with T2DM who have inadequate glycemic control; test: Phase 2 clinical study NCT03131687 (26 weeks): patients reaching HbA1c target; conditions: dulaglutide 1.5 mg once weekly
Method: (§1) Clinical Study (NCT03131687) Supporting Maintenance Dose Embodiments A 6-month (26-week) Phase 2 double-blind clinical study is designed to evaluate the safety, efficacy, and PK/PD of 4 dose levels (1 mg, 5 mg, 10 mg and 15 mg respectively) of tirzepatide once weekly by subcutaneous injection compared with dulaglutide 1.5 mg. once weekly (QW) and placebo QW in patients with T2DM who have inadequate glycemic control with diet and exercise with or without a stable dose of metformin. Tirzepatide dose is up-titrated to the maintenance dose using the following weekly dose increments:
(§2) The study also has a 4-week follow up period. In addition to safety and efficacy for treating T2DM, efficacy endpoints include the effect of tirzepatide on HbA1c, FBG, body weight, lipids, and waist circumference compared with placebo and with dulaglutide 1.5 mg. The study also evaluates the effect of tirzepatide on GI tolerability, hypoglycemia, hypersensitivity reactions, and pancreatic safety, as well as the development of treatment-emergent anti-drug antibodies. Model-based dose response analyses are performed to predict potential for significant HbA1c lowering and weight loss in longer studies. Statistical Analyses: Efficacy: The primary efficacy outcome of HbA1c change from baseline to the 26-week endpoint is analyzed using a Bayesian dose-response model. Analyses are performed on the intention to treat population (mITT) analysis set. Supportive analysis of the primary efficacy outcome for the mITT dataset are the model for post-baseline measures (MMRM) with body mass index (BMI) (<30 kg/m^2, ≥30 kg/m^2), metformin use, treatment, visit, and treatment-by-visit interaction as fixed effects, baseline HbA1c as a covariate, and patient as a random effect. The mean weight change from baseline at 12 and 26 weeks, along with the mean change from baseline of HbA1c at 12 weeks, is analyzed using similar dose-response models as the primary analyses. The percentages of patients with ≥5% or ≥10% body weight loss, reaching the HbA1c target of ≤6.5% or ≤7.0% at 26 weeks, or requiring rescue therapy are analyzed using logistic regression with fixed effects of treatment and strata, and baseline as a covariate. The changes from baseline in FBG (fasting blood glucose), SMBG (self-monitored blood glucose) levels, waist circumference, and mean percentage change in lipids from baseline to 12 and 26 weeks are analyzed using a similar MMRM to the one used for the primary analyses. Table Abbreviations: Dula 1.5 mg=dulaglutide 1.5 mg once weekly; LY means tirzepatide, and LY 1 mg=tirzepatide 1 mg once weekly; LY 5 mg=5 mg once weekly; LY 10 mg=escalation dose group tirzepatide once weekly with highest dose of 10 mg; LY 15 mg=escalation dose group of tirzepatide once weekly with highest dose 15 mg; LOCF=last observation-carried-forward; N=number of patients; pbo=placebo; Week 26=mITT on-treatment data at Week 26 excluding data after study drug discontinuation or rescue drug initiation; mITT=modified intent-to-treat; SD=standard deviation. For Table 4, n=number of patients in the population with baseline and post-baseline value at the specified time point. For Table 6, LY10 mg=escalation dose group tirzepatide, once weekly with highest dose of 10 mg; escalation dose: (5 mg weeks 0 and 1), LY15 mg=escalation dose group tirzepatide, once weekly with highest dose of 15 mg; escalation dose: (5 mg weeks 0 and 1; 10 mg weeks 2 to 5); N=number of patients in specified group, m=number of patients who experienced new event during interval, FolUp=follow up, T/Wk=Time range, (week) and %=means percent patients spending at least some time in treatment group who experienced new event during interval. For Table 7, n is the number of patients with events meeting the criteria; N is number of patients in the population; % is percent of patients in treatment group experiencing the event.

[2] = tested on: patients with T2DM who have inadequate glycemic control; test: NCT03131687: mean fasting glucose at Week 26; design: Mean change from baseline, fasting glucose: unit not given here; conditions: dulaglutide 1.5 mg once weekly, N 46
Method: as §1, §2

[3] = NCT03131687: weight loss at Week 26; conditions: dulaglutide 1.5 mg once weekly
Method: as §1, §2

[4] = NCT03131687: nausea, vomiting and diarrhea, new events per interval; conditions: dulaglutide 1.5 mg once weekly, N = 54
Method: as §1, §2

[5] = NCT03131687: decrease appetite (reported event); conditions: dulaglutide 1.5 mg once weekly, N = 54
Method: as §1, §2

[6] = second line, analysis set not given (not LOCF)

With dulaglutide [reference compound] the “% of Patients Reaching HbA1c Target <5.7%” value ([1]; LOCF Week 26 (N = 54)) was 1.9%, the “% of Patients Reaching HbA1c Target <6%” value ([1]; LOCF Week 26 (N = 54)) was 11.1% and the “odds ratio vs. placebo, Patients Reaching HbA1c Target <5.7%” value ([1]; LOCF Week 26 (N = 54)) was 1.0. For the same substance, the “odds ratio vs. placebo, Patients Reaching HbA1c Target <6%” value ([1]; LOCF Week 26 (N = 54)) was 4.5, the “% of Patients Reaching HbA1c Target <5.7%” value ([1]; mITT Week 26 (N = 47)) was 2.1% and the “% of Patients Reaching HbA1c Target <6%” value ([1]; mITT Week 26 (N = 47)) was 12.8%. For the same substance, the “odds ratio vs. placebo, Patients Reaching HbA1c Target <5.7%” value ([1]; mITT Week 26 (N = 47)) was 0.89, the “odds ratio vs. placebo, Patients Reaching HbA1c Target <6%” value ([1]; mITT Week 26 (N = 47)) was 4.5 and the “Mean change from baseline, fasting glucose” value [2] was −34.9. The “Mean glucose value (fasting)” value [2] was 140.5 mg/dL, the “% of Patients Achieving Weight loss ≥10%” value ([3]; LOCF) was 9.3% and the “odds ratio vs. placebo, Weight loss ≥10%” value ([3]; LOCF) was 11.7. The “% of Patients Achieving Weight loss ≥10%” value [3, 6] was 10.6%, the “% of Patients Achieving Weight loss ≥15%” value [3, 6] was 2.1% and the “odds ratio vs. placebo, Weight loss ≥10%” value [3, 6] was 10.4. The “Nausea Vomiting and Diarrhea: % patients who experienced new event during interval” value ([4]; Fol Up (follow up)) was 5.9%, the “Nausea Vomiting and Diarrhea: m, number of patients who experienced new event during interval” value ([4]; Fol Up (follow up)) was 3 and the “Nausea Vomiting and Diarrhea: % patients who experienced new event during interval” value ([4]; T/Wk 0) was 22.2%. For the same substance, the “Nausea Vomiting and Diarrhea: m, number of patients who experienced new event during interval” value ([4]; T/Wk 0) was 12, the “Nausea Vomiting and Diarrhea: % patients who experienced new event during interval” value ([4]; T/Wk 1) was 3.7% and the “Nausea Vomiting and Diarrhea: m, number of patients who experienced new event during interval” value ([4]; T/Wk 1) was 2. The “Nausea Vomiting and Diarrhea: % patients who experienced new event during interval” value ([4]; T/Wk 2) was 0.0%, the “Nausea Vomiting and Diarrhea: m, number of patients who experienced new event during interval” value ([4]; T/Wk 2) was 0 and the “Nausea Vomiting and Diarrhea: % patients who experienced new event during interval” value ([4]; T/Wk 3) was 3.8%. The “Nausea Vomiting and Diarrhea: m, number of patients who experienced new event during interval” value ([4]; T/Wk 3) was 2, the “Nausea Vomiting and Diarrhea: % patients who experienced new event during interval” value ([4]; T/Wk 4) was 1.9% and the “Nausea Vomiting and Diarrhea: m, number of patients who experienced new event during interval” value ([4]; T/Wk 4) was 1. The “Nausea Vomiting and Diarrhea: % patients who experienced new event during interval” value ([4]; T/Wk 5) was 0.0%, the “Nausea Vomiting and Diarrhea: m, number of patients who experienced new event during interval” value ([4]; T/Wk 5) was 0 and the “Nausea Vomiting and Diarrhea: % patients who experienced new event during interval” value ([4]; T/Wk 6) was 0.0%. The “Nausea Vomiting and Diarrhea: m, number of patients who experienced new event during interval” value ([4]; T/Wk 6) was 0, the “Nausea Vomiting and Diarrhea: % patients who experienced new event during interval” value ([4]; T/Wk 7) was 1.9% and the “Nausea Vomiting and Diarrhea: m, number of patients who experienced new event during interval” value ([4]; T/Wk 7) was 1. The “Nausea Vomiting and Diarrhea: % patients who experienced new event during interval” value ([4]; T/Wk 8) was 0.0%, the “Nausea Vomiting and Diarrhea: m, number of patients who experienced new event during interval” value ([4]; T/Wk 8) was 0 and the “Nausea Vomiting and Diarrhea: % patients who experienced new event during interval” value ([4]; T/Wk 9) was 1.9%. The “Nausea Vomiting and Diarrhea: m, number of patients who experienced new event during interval” value ([4]; T/Wk 9) was 1, the “Nausea Vomiting and Diarrhea: % patients who experienced new event during interval” value ([4]; T/Wk 10) was 0.0% and the “Nausea Vomiting and Diarrhea: m, number of patients who experienced new event during interval” value ([4]; T/Wk 10) was 0. For the same substance, the “Nausea Vomiting and Diarrhea: % patients who experienced new event during interval” value ([4]; T/Wk 11) was 0.0%, the “Nausea Vomiting and Diarrhea: m, number of patients who experienced new event during interval” value ([4]; T/Wk 11) was 0 and the “Nausea Vomiting and Diarrhea: % patients who experienced new event during interval” value ([4]; T/Wk 12) was 2.0%. For the same substance, the “Nausea Vomiting and Diarrhea: m, number of patients who experienced new event during interval” value ([4]; T/Wk 12) was 1, the “Nausea Vomiting and Diarrhea: % patients who experienced new event during interval” value ([4]; T/Wk >12 < 16) was 3.9% and the “Nausea Vomiting and Diarrhea: m, number of patients who experienced new event during interval” value ([4]; T/Wk >12 < 16) was 2. The “Nausea Vomiting and Diarrhea: % patients who experienced new event during interval” value ([4]; T/Wk >16 ≤ 20) was 2.0%, the “Nausea Vomiting and Diarrhea: m, number of patients who experienced new event during interval” value ([4]; T/Wk >16 ≤ 20) was 1 and the “Nausea Vomiting and Diarrhea: % patients who experienced new event during interval” value ([4]; T/Wk >20) was 7.8%. The “Nausea Vomiting and Diarrhea: m, number of patients who experienced new event during interval” value ([4]; T/Wk >20) was 4, the “Decrease Appetite (reported): n, number of patients with events” value [5] was “n = 3;” and the “Decrease Appetite (reported): percent of patients in treatment group experiencing the event” value [5] was 5.6%.
